# Source: US20200308294A1 (published 2020)
# B1: VEGF (ligand, UniProt P15692-4 27-191, looked up)
# chain: APMAEGGGQNHHEVVKFMDVYQRSYCHPIETLVDIFQEYPDEIEYIFKPSCVPLMRCGGCCNDEGLECVPTEESNITMQIMRIKPHQGQHIGEMSFLQHNKCECRPKKDRARQENPCGPCSERRKHLFVQDPQTCKCSCKNTDSRCKARQLELNERTCRCDKPRR
# notes: Soluble VEGF added to the nanoparticles
# Columns and labels:
# VEGF = VEGF (UniProt P15692); assay: VEGF co-incubated with AB160, particulate removed, free VEGF in the supernatant measured by ELISA
# [1] = biological target: AB160 (nanoparticle of albumin-bound paclitaxel and bevacizumab, ratio about 10:4, average size 160 nm) (UniProt P02768); assay: flow cytometry of particles stained with goat anti-mouse IgG and PE detection
# [2] = biological target: ABRAXANE (albumin-bound paclitaxel) (UniProt P02768); assay: flow cytometry of particles stained with goat anti-mouse IgG and PE detection; ABX alone as comparison
# [3] = biological target: T1, ABRAXANE (albumin-bound paclitaxel) (UniProt P02768 25-609, non-covalently bound paclitaxel (nanoparticle of about 130 nm)); assay: VEGF co-incubated with ABX for 2 hours, particulate spun down, free VEGF in the supernatant measured by ELISA
# T1 construct: A nanoparticle of many albumin molecules with paclitaxel, not a single protein; also called ABX; Paclitaxel Albumin-stabilized Nanoparticle Formulation
# Procedure: The VEGF was incubated with the nanoparticles for 2 hours at room temperature. The suspension was spun at 6000 rpm for 15 minutes, supernatants were collected and free VEGF was measured by ELISA. Briefly, ELISA plates were coated with capture antibody overnight at 4° C. Plates were washed, blocked and standards and samples were added. After washing, detection antibody was added and plates were developed with substrate (R and D Systems, Minneapolis, Minn.). […] The concentration of unbound VEGF was determined with a standard curve from 0 to 2000 μg/ml.
molecule,measurement,setting,value
"AB160 (nanoparticle of albumin-bound paclitaxel and bevacizumab, ratio about 10:4, average size 160 nm) (from UniProt P02768 25-609)",% VEGF unbound,VEGF,< 10%
goat anti-mouse IgG (antibody),% positive,[1],41.2%
same,% positive,[2],6.7%
B1,binding result,[3],no binding (tested: >80% VEGF unbound)
